# Publication PMC3258144 (Nucleic Acids Research, 2011)
# Legend:
# [1] = target: the molecule itself; test: native gel or EMSA
# [2] = target: the molecule itself; test: fluorescence polarisation
Protein,binding result [1],binding result [2]
"Dnmt3a-C K840E (domain or fragment, mouse, UniProt O88508 608-908, looked up) NHDQEFDPPKVYPPVPAEKRKPIRVLSLFDGIATGLLVLKDLGIQVDRYIASEVCEDSITVGMVRHQGKIMYVGDVRSVTQKHIQEWGPFDLVIGGSPCNDLSIVNPARKGLYEGTGRLFFEFYRLLHDARPKEGDDRPFFWLFENVVAMGVSDKRDISRFLESNPVMIDAKEVSAAHRARYFWGNLPGMNRPLASTVNDKLELQECLEHGRIAKFSKVRTITTRSNSIKQGEDQHFPVFMNEKEDILWCTEMERVFGFPVHYTDVSNMSRLARQRLLGRSWSVPVIRHLFAPLKEYFACV",binds,
"Dnmt3a-C E850H (domain or fragment, mouse, UniProt O88508 608-908, looked up) NHDQEFDPPKVYPPVPAEKRKPIRVLSLFDGIATGLLVLKDLGIQVDRYIASEVCEDSITVGMVRHQGKIMYVGDVRSVTQKHIQEWGPFDLVIGGSPCNDLSIVNPARKGLYEGTGRLFFEFYRLLHDARPKEGDDRPFFWLFENVVAMGVSDKRDISRFLESNPVMIDAKEVSAAHRARYFWGNLPGMNRPLASTVNDKLELQECLEHGRIAKFSKVRTITTRSNSIKQGKDQHFPVFMNHKEDILWCTEMERVFGFPVHYTDVSNMSRLARQRLLGRSWSVPVIRHLFAPLKEYFACV",binds,
"Dnmt3a-C R827E (domain or fragment, mouse, UniProt O88508 608-908, looked up) NHDQEFDPPKVYPPVPAEKRKPIRVLSLFDGIATGLLVLKDLGIQVDRYIASEVCEDSITVGMVRHQGKIMYVGDVRSVTQKHIQEWGPFDLVIGGSPCNDLSIVNPARKGLYEGTGRLFFEFYRLLHDARPKEGDDRPFFWLFENVVAMGVSDKRDISRFLESNPVMIDAKEVSAAHRARYFWGNLPGMNRPLASTVNDKLELQECLEHGRIAKFSKVETITTRSNSIKQGKDQHFPVFMNEKEDILWCTEMERVFGFPVHYTDVSNMSRLARQRLLGRSWSVPVIRHLFAPLKEYFACV",binds,binds
